Measured values as given in the supplement of paper PMC10567573.

B1: TPD52L1 (parent)
chain: ISKKFGDMSYSIRHSISMPAMRNS

Variants of: B1
Experiment: protein stability index of a GFP-peptide fusion (GPS, HEK-293T) (PSI 1-6); higher = more stable
Conditions: c terminus: a fixed tail appended
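Further: lentivirally expressed fusions sorted by FACS into six bins by GFP to DsRed ratio, PSI derived from sequencing read proportions per bin multiplied by bin number.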

Protein stability index: each site, then its substitutions
G6: H 1.88 | I 1.6 | K 1.74 | L 1.45 | M 2.62 | N 2.15 | P 2.75 | Q 2.19 | R 2.35 | S 2.24 | T 2.62 | V 2.15 | W 2.38 | Y 1.86
D7: A 2.15 | C 1.69 | E 2.22 | F 1.7 | G 1.68 | H 1.77 | I 3.23 | K 2.58 | L 1.78 | M 1.51 | N 1.67 | P 2.14 | Q 2.04 | R 2.21 | S 2.34 | T 1.54 | V 1.82 | W 1.9 | Y 2.31
M8: A 2.87 | C 1.96 | D 2.78 | E 3.18 | F 2.19 | G 2.31 | H 2.33 | I 2.13 | K 2.48 | L 2.27 | N 2.88 | P 3.46 | Q 2.85 | R 2.53 | S 2.4 | T 2.33 | V 2.38 | W 2.42 | Y 1.54
S9: A 2.23 | C 1.88 | D 2.36 | E 2.34 | F 2 | G 2.27 | H 2.38 | I 2.59 | K 2.37 | L 1.42 | M 1.51 | N 2.36 | P 2.03 | Q 2.31 | R 2.22 | T 2 | V 2.03 | W 2.69 | Y 1.98
Y10: A 2.91 | C 2.17 | D 2.98 | E 2.88 | F 2.01 | G 3.06 | H 2.69 | I 2.23 | K 2.57 | L 1.88 | M 2.37 | N 2.73 | P 2.97 | Q 2.76 | R 2.41 | S 2.84 | T 2.72 | V 2.94 | W 1.93
S11: A 2.51 | C 1.88 | D 2.68 | E 1.97 | F 1.91 | G 2.52 | H 2.41 | I 2.03 | K 1.99 | L 2.75 | M 2.03 | N 2.74 | P 2.58 | Q 2.22 | R 2.24 | T 2.38 | V 2.49 | W 1.67 | Y 2.06
I12: A 2.55 | C 1.54 | D 3.07 | E 3.36 | F 2.63 | G 2.4 | H 2.6 | K 2.56 | L 2.71 | M 2.44 | N 3.1 | P 2.98 | Q 2.27 | R 2.86 | S 2.41 | T 2.83 | V 2.28 | W 1.57 | Y 2.37
R13: A 2.21 | C 1.78 | D 2.49 | E 2.48 | F 2.01 | G 2.45 | H 2.37 | I 1.64 | K 2.14 | L 1.77 | M 1.89 | N 2.1 | P 2.67 | Q 2.05 | S 2.02 | T 2.01 | V 2.6 | W 2.29 | Y 1.45
H14: A 2.15 | C 2.73 | D 3.35 | E 2.33 | F 2.49 | G 1.88 | I 2.73 | K 2.69 | L 3.05 | M 2.44 | N 2.38 | P 2.56 | Q 2.28 | R 3.72 | S 1.8 | T 1.9 | V 4.3 | Y 1.7
S15: A 2.23 | C 2.23 | D 1.92 | E 3.28 | F 1.42 | G 2.38 | H 1.85 | I 1.87 | K 2.31 | L 1.83 | M 1.91 | N 2.37 | P 2.43 | Q 2.5 | R 2.24 | T 1.88 | V 1.32 | W 2.22 | Y 1.51
I16: A 2.76 | C 2.02 | D 2.6 | E 3.25 | F 1.61 | G 2.51 | H 2.36 | K 2.98 | L 2.46 | M 2.9 | N 2.61 | P 2.99 | Q 2.72 | R 2.81 | S 2.77 | T 2.67 | V 2.32 | W 1.97 | Y 2.12
S17: A 2.01 | C 1.92 | D 2.36 | E 2.1 | F 2.13 | G 2.42 | H 2.15 | I 2.03 | K 2.13 | L 1.8 | M 2.17 | N 2.25 | P 2.28 | Q 2.48 | R 2.17 | T 2.11 | V 2.12 | W 1.27 | Y 1.98
M18: A 2.64 | C 2.21 | D 2.88 | E 2.74 | F 1.8 | G 2.42 | H 2.6 | I 2.53 | K 2.31 | L 2.01 | N 2.28 | P 2.64 | Q 2.77 | R 2.34 | S 2.05 | T 2.58 | V 1.83 | W 1.7 | Y 1.87
P19: A 1.98 | C 1.76 | D 2.2 | E 2.47 | F 1.87 | G 2.6 | H 2.01 | I 2.6 | K 1.83 | L 2.35 | M 2.58 | N 2.04 | Q 2.33 | R 1.9 | S 1.97 | T 2.17 | V 1.87 | W 1.71 | Y 1.7
A20: C 2.38 | D 3.36 | E 2.58 | F 2.2 | G 1.67 | H 2.28 | I 2.67 | K 2.35 | L 1.93 | M 1.95 | N 2.58 | P 2.36 | Q 2.26 | R 2.24 | S 2.04 | T 2.58 | V 2.95 | W 2.13 | Y 2.17
M21: A 2.82 | C 3.31 | D 2.75 | E 3.36 | F 2.31 | G 2.4 | H 2.46 | I 2.39 | K 3.21 | L 2.27 | N 2.68 | P 2.54 | Q 2.33 | R 2.57 | S 2.46 | T 2.49 | V 2.53 | W 2.79 | Y 2.46
R22: A 2.23 | C 1.97 | D 2.52 | E 2.18 | F 2.22 | G 2.66 | H 2.56 | I 1.85 | K 2.75 | L 1.82 | M 2.25 | N 2.79 | P 2.34 | Q 2.3 | S 2.13 | T 2.6 | V 1.8 | W 1.65 | Y 1.88
N23: A 1.86 | C 1.91 | D 2.32 | E 2.28 | F 1.84 | G 2.42 | H 2.19 | I 1.77 | K 2.48 | L 1.98 | M 2.05 | P 2.46 | Q 2.29 | R 2.14 | S 2.26 | T 2.31 | V 1.84
